B1: Exo70 wild type, HA-tagged and Flag-tagged copies co-expressed [rat] / itself (parent)
chain: MIPPQEASARRREIEDKLKQEEETLSFIRDSLEKSDQLTKNMVSILSSFESRLMKLENSIIPVHKQTENLQRLQENVEKTLSCLDHVISYYHVASDTEKIIREGPTGRLEEYLGSMAKIQKAVEYFQDNSPDSPELNKVKLLFERGKESLESEFRSLMTRHSKVISPVLVLDLISADDELEVQEDVVLEHLPESVLQDVIRISRWLVEYGRNQDFMNVYYQIRSSQLDRSIKGLKEHFRKSSSSSGVPYSPAIPNKRKDTPTKKPIKRPGRDDMLDVETDAYIHCVSAFVRLAQSEYQLLMGIIPEHHQKKTFDSLIQDALDGLMLEGENIVSAARKAIIRHDFSTVLTVFPILRHLKQTKPEFDQVLQGTAASTKNKLPGLITSMETIGAKALEDFADNIKNDPDKEYNMPKDGTVHELTSNAILFLQQLLDFQETAGAMLASQETSSSATSYNSEFSKRLLSTYICKVLGNLQLNLLSKSKVYEDPALSAIFLHNNYNYILKSLEKSELIQLVAVTQKTAERSYREHIEQQIQTYQRSWLKVTDYIAEKNLPVFQPGVKLRDKERQMIKERFKGFNDGLEELCKIQKAWAIPDTEQRDKIRQAQKSIVKETYGAFLHRYSSVPFTKNPEKYIKYRVEQVGDMIDRLFDTSA
B2: Exo70-Flag [rat] / HA-Sec6 [not stated] (parent)
chain 1: B1 chain
chain 2: MCKDSACFSTMKETDLEAVATAVQRVAGMLQRPDQLDKVEQYRRREARKKASVEARLKAAIQSQLDGVRTGLSQLHNALNDVKDIQQSLADVSKDWRQSINTIESLKDVKDAVVQHSQLAAAVENLKNIFSVPEIVRETQDLIEQGALLQAHRKLMDLECSRDGLMCEQYRMDSGNKRDMTLIHGYFGSTQGLSDELAKQLWMVLQRSLVTVRRDPTLLVSVVRIIEREEKIDRRILDRKKQTGFVPPGRPKNWKEKMFAVLDRTVTTRIEGTQADTRESDKMWLVRHLEIIRKYVLDDLVIAKNLLVQCFPPHYDIFKNLLSMYHQALSIRMQDLASEDLEANEIVSLLTWVLNTYTSAEMMGNVELAPEVDVNALEPLLSPNVVSELLDTYMSTLTSNIIAWLRKALETDKKDWSKETEPEADQDGYYQTTLPAIVFQMFEQNLQVAAQISEDLKTKVLVLCLQQMNSFLSRYKEEAQLYKEEHLRNRQHPHCYVQYMVAIINNCQTFKESIISLKRKYLKPETEESLCQSQPSMDGILDAIAKEGCSSLLEEVFLDLEQHLNELMTKKWMLGSNAVDIICVTVEDYFNDFAKIKKPYKKRMTAEAHRRVVVEYLRAVMQKRISFRSAEERKEGAEKMVREAEQLRFLFRKLASGFGEDADGHCDTIVAVAEVIKLTDPSLLYLEVSTLVSKYPDIRDDHIGALLALRGDASRDMKQTIMETLEQGPMQASPNYVPIFQEIVVPSLNVAKLLK
B3: Exo70-Flag [rat] / HA-Sec8 [not stated] (parent)
chain 1: B1 chain
chain 2: MAAEAAGGKYRSTVSKSKDPSGLLISVIRTLSTSDDVEDRENEKGRLEEAYEKCDRDLDELIVQHYTELTTAIRTYQSITERITNSRNKIKQVKENLLSCKMLLHCKRDELRKLWIEGIEHKHVLNLLDEIENIKQVPQKLEQCMASKHYLSATDMLVSAVESLEGPLLQVEGLSDLRLELHSKKMNLHLVLIEELHRHLYIKSTSRVVQRNKEKGKMSSHGKDASPGPLIDVSNISTPRKFLDATQYSAAGSSSVREMNLQDIKEDLDCDPEENSTLFMGILIQGLARLKKIPETVKAIKERLEQELKQIVKRSTTQVADSAYQRGESLTVDNQPRLLLELLELLFDKFNAVASAHSIVLGYLQDSVGTQPTQQEEIKLYDMADVWVKIQDVLQMLLTEYLDMKNTRTASEPSAQLSYASTGREFAAFFAKKKPQRPKNSLFKFESSSHAISMSAYLREQRRELYSRSGELQGGPDDNLIEGGGTKFVCKPGARNITVIFHPLLRFIQEIEHALGLGPAKQCLLREFLTIYIKNIFLNQVLTEINKEIEGVTKTSDPLKILANADTMKVLGVQRPLLQSTIIVEKTVQDLMNLMHDLSAYSDQFLNMVCVKLQEYKDTCSTAYRGIVQSEEKLVISASWAKDDDISRLLKSLPNWTNMAQPKQLRPKREEEEDFIRAAFGKESEVLIGNLGDKLIPPQDILRDVSDLKALANMHESLEWLAGRTKSAFSSLSASQMLSPAQESHVNMDLPPVSEQIMQTLSELAKSFQDMADRCLLVLHLEVRVHCFHYLIPLAKEGNYAIVANVESMDYDPLVVKLNKDISAMEEAMSASLQQHKFQYIFEGLGHLISCILINGAQYFRRISESGIKKMCRNIFVLQQNLTNITMSREADLDFARQYYEMLYNTADELLNLVVDQGVKYTELEYIHALTLLHRSQTGVGDQTTQNTRLQRLKEIICEQAAIKQATKDKKITTV

The variants in one test derive from B1. Put plainly: co-immunoprecipitation (IP: HA, blot: Flag). The conditions noted are these: with itself; 293T cells; with Myc-ULK1 co-expressed; parent: 0.35.
As for chain 1 S47A, the response (relative band intensity) was found to be 0.87.

On to chain 1 S59A, for which the response (relative band intensity) is 1.16.

With chain 1 S89A, the response (relative band intensity) was 1.

For the variant chain 1 S47A S59A S89A, the response (relative band intensity) came to 2.44.

The test is the same for the next values; noted with them: with itself; 293T cells; without Myc-ULK1; parent: 1.
chain 1 S47A: the response (relative band intensity) stood at 1.

With chain 1 S59A, the response (relative band intensity) stood at 1.31.

Turning to chain 1 S89A, the response (relative band intensity) worked out at 1.17.

chain 1 S47A S59A S89A: the response (relative band intensity) came out at 1.49.

Staying with this test, now noted: with itself; 293T cells; parent: 1.
Regarding chain 1 S47D S59D S89D, the response (relative band intensity) is 0.03.

With chain 1 S47D S89D, the response (relative band intensity) turned out to be 0.18.

Turning to chain 1 S89D, the response (relative band intensity) was determined as 0.46.

Consider chain 1 S59D S89D, for which the response (relative band intensity) turned out to be 0.41.

The next test covers variants of B2. Put plainly: co-immunoprecipitation (IP: HA, blot: Flag). The conditions noted are these: with HA-Sec6; 293T cells; parent: 1.
With chain 1 S47D S59D S89D, the response (relative band intensity) worked out at 0.31.

In another test the parent is B3. Put plainly: co-immunoprecipitation (IP: HA, blot: Flag). To be noted: with HA-Sec8; 293T cells; parent: 1.03.
For chain 1 S47D S59D S89D, the response (relative band intensity) is 0.45.
